In patent US20170209564A1:

Key:
Experiment in all cases: ELISA signal over HTRF expression signal, P. pastoris
Details in all cases: remark: other sources report otherwise
10F9 = biological target: 10F9
12C6 = biological target: 12C6
27B10 = biological target: 27B10
36D6 = biological target: 36D6
48D11 = biological target: 48D11
51G10 = biological target: 51G10
53G10 = biological target: 53G10
54H4 = biological target: 54H4
56F8 = biological target: 56F8
57B8 = biological target: 57B8
58A11 = biological target: 58A11
58A5 = biological target: 58A5
58C8 = biological target: 58C8
60A2 = biological target: 60A2
61A9 = biological target: 61A9
63C3 = biological target: 63C3
66C8 = biological target: 66C8
67C10 = biological target: 67C10
67C11 = biological target: 67C11
69G8 = biological target: 69G8
70F6 = biological target: 70F6
71C4 = biological target: 71C4
71D3 = biological target: 71D3
74H9 = biological target: 74H9
76A10 = biological target: 76A10
76D10 = biological target: 76D10
78F11 = biological target: 78F11
7A7 = biological target: 7A7
850 = biological target: 850
85A7 = biological target: 85A7
86B3 = biological target: 86B3
86B4 = biological target: 86B4
86G3 = biological target: 86G3
86H9 = biological target: 86H9
90A9 = biological target: 90A9
96G5 = biological target: 96G5
97G10 = biological target: 97G10
9C6 = biological target: 9C6

B1: CR6261 (antibody, V domains shown)
VH: EVQLVESGAEVKKPGSSVKVSCKASGGPFRSYAISWVRQAPGQGPEWMGGIIPIFGTTKYAPKFQGRVTITADDFAGTVYMELSSLRSEDTAMYYCAKHMGYQVRETMDVWGKGTTVTVSS
VL: QSVLTQPPSVSAAPGQKVTISCSGSSSNIGNDYVSWYQQLPGTAPKLLIYDNNKRPSGIPDRFSGSKSGTSATLGITGLQTGDEANYYCATWDRRPTAYVVFGGGTKLTVLG
- fold increase of ratio over parental SEQ ID NO: 6 (10F9): 3.93
- ratio (binding signal/HTRF signal) (10F9): 23.3
- fold increase of ratio over parental SEQ ID NO: 6 (12C6): 2.43
- ratio (binding signal/HTRF signal) (12C6): 14.4
- fold increase of ratio over parental SEQ ID NO: 6 (27B10): 2.75
- ratio (binding signal/HTRF signal) (27B10): 16.3
- fold increase of ratio over parental SEQ ID NO: 6 (36D6): 1.83
- ratio (binding signal/HTRF signal) (36D6): 10.8
- fold increase of ratio over parental SEQ ID NO: 6 (48D11): 2.98
- ratio (binding signal/HTRF signal) (48D11): 17.7
- fold increase of ratio over parental SEQ ID NO: 6 (51G10): 3.73
- ratio (binding signal/HTRF signal) (51G10): 22.1
- fold increase of ratio over parental SEQ ID NO: 6 (53G10): 2.93
- ratio (binding signal/HTRF signal) (53G10): 17.4
- fold increase of ratio over parental SEQ ID NO: 6 (54H4): 8.39
- ratio (binding signal/HTRF signal) (54H4): 49.8
- fold increase of ratio over parental SEQ ID NO: 6 (56F8): 3.65
- ratio (binding signal/HTRF signal) (56F8): 21.7
- fold increase of ratio over parental SEQ ID NO: 6 (57B8): 1.7
- ratio (binding signal/HTRF signal) (57B8): 10.1
- fold increase of ratio over parental SEQ ID NO: 6 (58A11): 1.67
- ratio (binding signal/HTRF signal) (58A11): 9.93
- fold increase of ratio over parental SEQ ID NO: 6 (58A5): 3.69
- ratio (binding signal/HTRF signal) (58A5): 21.9
- fold increase of ratio over parental SEQ ID NO: 6 (58C8): 2.51
- ratio (binding signal/HTRF signal) (58C8): 14.9
- fold increase of ratio over parental SEQ ID NO: 6 (60A2): 2.53
- ratio (binding signal/HTRF signal) (60A2): 15
- fold increase of ratio over parental SEQ ID NO: 6 (61A9): 5.94
- ratio (binding signal/HTRF signal) (61A9): 35.3
- fold increase of ratio over parental SEQ ID NO: 6 (63C3): 4.15
- ratio (binding signal/HTRF signal) (63C3): 24.7
- fold increase of ratio over parental SEQ ID NO: 6 (66C8): 2.29
- ratio (binding signal/HTRF signal) (66C8): 13.6
- fold increase of ratio over parental SEQ ID NO: 6 (67C10): 3.99
- ratio (binding signal/HTRF signal) (67C10): 23.7
- fold increase of ratio over parental SEQ ID NO: 6 (67C11): 3.57
- ratio (binding signal/HTRF signal) (67C11): 21.2
- fold increase of ratio over parental SEQ ID NO: 6 (69G8): 8.55
- ratio (binding signal/HTRF signal) (69G8): 50.8
- fold increase of ratio over parental SEQ ID NO: 6 (70F6): 1.63
- ratio (binding signal/HTRF signal) (70F6): 9.66
- fold increase of ratio over parental SEQ ID NO: 6 (71C4): 5.13
- ratio (binding signal/HTRF signal) (71C4): 30.4
- fold increase of ratio over parental SEQ ID NO: 6 (71D3): 5.67
- ratio (binding signal/HTRF signal) (71D3): 33.7
- fold increase of ratio over parental SEQ ID NO: 6 (74H9): 6.09
- ratio (binding signal/HTRF signal) (74H9): 36.1
- fold increase of ratio over parental SEQ ID NO: 6 (76A10): 3.37
- ratio (binding signal/HTRF signal) (76A10): 20
- fold increase of ratio over parental SEQ ID NO: 6 (76D10): 1.97
- ratio (binding signal/HTRF signal) (76D10): 11.7
- fold increase of ratio over parental SEQ ID NO: 6 (78F11): 3.41
- ratio (binding signal/HTRF signal) (78F11): 20.2
- fold increase of ratio over parental SEQ ID NO: 6 (7A7): 12.4
- ratio (binding signal/HTRF signal) (7A7): 73.4
- fold increase of ratio over parental SEQ ID NO: 6 850: 4.07
- ratio (binding signal/HTRF signal) 850: 24.2
- fold increase of ratio over parental SEQ ID NO: 6 (85A7): 4.72
- ratio (binding signal/HTRF signal) (85A7): 28
- fold increase of ratio over parental SEQ ID NO: 6 (86B3): 10.5
- ratio (binding signal/HTRF signal) (86B3): 62.4
- fold increase of ratio over parental SEQ ID NO: 6 (86B4): 13.1
- ratio (binding signal/HTRF signal) (86B4): 77.7
- fold increase of ratio over parental SEQ ID NO: 6 (86G3): 3.87
- ratio (binding signal/HTRF signal) (86G3): 23
- fold increase of ratio over parental SEQ ID NO: 6 (86H9): 5.77
- ratio (binding signal/HTRF signal) (86H9): 34.3
- fold increase of ratio over parental SEQ ID NO: 6 (90A9): 7.72
- ratio (binding signal/HTRF signal) (90A9): 45.8
- fold increase of ratio over parental SEQ ID NO: 6 (96G5): 2.4
- ratio (binding signal/HTRF signal) (96G5): 14.3
- fold increase of ratio over parental SEQ ID NO: 6 (97G10): 2.12
- ratio (binding signal/HTRF signal) (97G10): 12.6
- fold increase of ratio over parental SEQ ID NO: 6 (9C6): 5.54
- ratio (binding signal/HTRF signal) (9C6): 32.9
